Data: publication PMC10758017

T1: TGFβRI/TGFβRII receptor complex (mouse (endogenous in MFB-F11)) (UniProt Q64729)
T1 sequence 1: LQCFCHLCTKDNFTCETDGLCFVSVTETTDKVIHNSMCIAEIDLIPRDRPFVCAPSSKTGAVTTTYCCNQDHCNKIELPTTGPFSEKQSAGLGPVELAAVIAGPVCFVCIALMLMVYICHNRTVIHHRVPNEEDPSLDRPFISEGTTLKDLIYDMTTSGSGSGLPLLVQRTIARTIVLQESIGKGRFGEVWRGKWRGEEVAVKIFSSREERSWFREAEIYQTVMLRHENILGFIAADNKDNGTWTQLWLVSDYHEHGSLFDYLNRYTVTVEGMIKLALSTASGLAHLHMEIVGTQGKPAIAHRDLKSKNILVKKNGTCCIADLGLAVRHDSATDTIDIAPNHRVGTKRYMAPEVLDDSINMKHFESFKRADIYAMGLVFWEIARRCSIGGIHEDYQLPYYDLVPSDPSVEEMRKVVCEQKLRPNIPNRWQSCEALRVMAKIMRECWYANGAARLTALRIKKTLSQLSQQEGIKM
T1 sequence 2: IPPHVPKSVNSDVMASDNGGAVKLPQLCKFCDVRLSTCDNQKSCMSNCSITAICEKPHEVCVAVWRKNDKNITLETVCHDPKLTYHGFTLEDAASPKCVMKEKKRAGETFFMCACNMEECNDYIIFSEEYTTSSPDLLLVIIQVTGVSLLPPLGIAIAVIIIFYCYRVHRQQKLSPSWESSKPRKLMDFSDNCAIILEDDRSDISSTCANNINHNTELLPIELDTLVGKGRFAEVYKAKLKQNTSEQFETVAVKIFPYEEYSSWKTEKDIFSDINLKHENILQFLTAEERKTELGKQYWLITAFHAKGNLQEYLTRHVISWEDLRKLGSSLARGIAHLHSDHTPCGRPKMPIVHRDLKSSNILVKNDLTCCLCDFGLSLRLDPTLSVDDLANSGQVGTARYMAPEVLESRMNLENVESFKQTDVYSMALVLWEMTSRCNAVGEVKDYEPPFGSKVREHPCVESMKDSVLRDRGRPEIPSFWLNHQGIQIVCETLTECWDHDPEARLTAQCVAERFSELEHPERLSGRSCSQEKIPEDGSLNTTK


What was measured:
[1] = target: T1, TGFβRI/TGFβRII receptor complex (mouse (endogenous in MFB-F11))
[2] = target: T1, TGFβRI/TGFβRII receptor complex (mouse (endogenous in MFB-F11)); remark: listed apart in the source
[3] = target: T1, TGFβRI/TGFβRII receptor complex (mouse (endogenous in MFB-F11)); remark: listed apart in the source
[4] = target: T1, TGFβRI/TGFβRII receptor complex (mouse (endogenous in MFB-F11)); remark: listed apart in the source

Binder | Smad2 mRNA, ddCt (qRT-PCR), IP at 50 μM against the reference inhibitor SB-525334 at 50 nM [1] | Smad3 mRNA, ddCt (qRT-PCR), IP at 50 μM against the reference inhibitor SB-525334 at 50 nM [2] | Smad4 mRNA, ddCt (qRT-PCR), IP at 50 μM against the reference inhibitor SB-525334 at 50 nM [3] | Jun N-terminal kinase (JNK1) mRNA, ddCt (qRT-PCR), IP at 50 μM against the reference inhibitor SB-525334 at 50 nM [4]
LDAAYCFRN [peptide inhibitor 1.2 …] | -12.2 | -11.9 | -11.3 | -15.3
DAAYCFRNV [peptide inhibitor 1.3 …] | -10.5 | -9.5 | -9.3 | -13.4
AYCFRNVQD [peptide inhibitor 1.5 …] | -2.4 | 0.2 | 0.9 | -0.1
